Results on one molecule are retold here after US20060240487A1 (published 2006).

The target in assay [1] is T1, biotinylated mature GDF-8 dimer (human, UniProt O14793 267-375, biotin on amine groups (lysine residues and/or amino termini); biotin:GDF-8 molar ratio between 0:1 and 3:1).
T1 construct: Captured on streptavidin-coated plates; also called Biotinylated GDF-8; biotinylated mature GDF-8 protein
Briefly: ELISA standard curve, 4-parameter logistic fit; c = concentration resulting in signal at approximately midpoint between a and d; biotinylated GDF-8 on streptavidin plate. As for the experimental part:
To detect MYO-029 in a human serum sample, an ELISA was performed as follows. Streptavidin was adsorbed by first adding streptavidin coating solution (100 μL/well) (5 μg/mL ImmunoPure streptavidin (Pierce) in 0.1 M Carbonate/Bicarbonate buffer, pH 9.6) to the wells of a 96 well plate (high binding flat-bottom microtiter) (Costar, Cat. No. 3590). The plate was covered with sealing film and incubated at 2-8° C. overnight. Using an automatic plate washer, the plate was washed four times (4×) with THST buffer (300 μL/well) (50 mM Tris-HCl, pH 8.0, containing 1.0 mM glycine, 0.5 M NaCl, and 0.05% v/v/ Tween 20® (J. T. Baker)), reversing the orientation of the plate after the second wash. To block, 200 μL of blocking buffer (1% bovine albumin (Sigma), 0.02% sodium azide in PBS (Dulbeccos)) was added to each well. The plate was covered with sealing film and incubated for 1-2 hours at room temperature and then washed as above. […]
A MYO-029 working calibrator solution was prepared of 1080 ng/mL MYO-029 in normal human serum (Bioreclamation, Inc.) The 1080 ng/mL stock was fist diluted 8-fold in assay buffer (THST buffer+4% nonfat dry milk), and then a series of 1.5 fold dilutions of the resulting 135 ng/mL standard were prepared in THST+4% nonfat dry milk+12.5% normal human serum to yield the calibration standard concentrations. […] For human serum, the minimum dilution determined was 1:8. […]
Background: ELISA stands for enzyme-linked immunosorbent assay.

For assay [2], the target named is T1, biotinylated mature GDF-8 dimer. In words: ELISA standard curve parameters of the rat serum experiment; biotinylated GDF-8 on streptavidin plate.

A word on the EC50: it is the concentration giving half of the maximal effect.

B1: MYO-029 (antibody, V domains shown)
VH: QVQLVQSGAEVKKPGASVKVSCKASGYTFTSYYMHWVRQAPGQGLEWMGIINPSGGSTSYAQKFQGRVTMTRDTSTSTVYMELSSLRSEDTAVYYCARDENWGFDPWGQGTLVTVSS
VL: SYELTQPPSVSVSPGQTATITCSGHALGDKFVSWYQQGSGQSPVLVIYDDTQRPSGIPGRFSGSNSGNTATLTISGTQAMDEADYFCQAWDSSFVFGGGTKVTVL
notes: also called fully human antibody
On to B1, for which the EC50 in assay [1] is 0.0728 µg/mL; in assay [2], 0.0587 µg/mL.
